Drawing on article PMC7382286 (2020), this text covers Kd and koff for six molecules.

Test [1] has as its target T1, biotinylated recombinant human Arginase 2 (human, UniProt P78540 23-354, biotin (biotinylated; site not stated)).
T1 chain: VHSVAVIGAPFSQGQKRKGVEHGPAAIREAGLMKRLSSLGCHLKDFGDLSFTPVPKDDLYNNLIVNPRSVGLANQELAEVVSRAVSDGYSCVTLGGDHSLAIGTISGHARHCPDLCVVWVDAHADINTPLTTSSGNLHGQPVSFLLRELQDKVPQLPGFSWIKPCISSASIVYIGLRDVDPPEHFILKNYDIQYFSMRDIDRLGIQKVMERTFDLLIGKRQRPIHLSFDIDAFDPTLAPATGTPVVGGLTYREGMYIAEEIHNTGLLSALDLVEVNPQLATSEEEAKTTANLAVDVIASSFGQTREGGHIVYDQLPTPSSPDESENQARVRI
Briefly: BLI. Background: Biolayer interferometry detects binding as a change in optical thickness at a sensor tip.

Test [2] has as its target T1, biotinylated recombinant human Arginase …. Briefly: BLI.

B1: Fab C0021177 (Fab, V domains shown)
VH: EVQLLESGGGLVQPGGSLRLSCAASGFTFRYEVAAWVRQAPGKGLEWVSAISGPAPKGYYADSVKGRFTISRDNSKNTLYLQMNSLRAEDTAVYYCARLRADLGLYMDLWGRGTLVTVSS
VL: QSELTQPPTASAAPGQKVTISCSGSSSNIGNHYVSWYQQLPGTAPKLLIYDTTVLSSGIPDRFSGSKSGTSATLGITGLQTGDEADYYCGTWDELTSNLVFGGGTKLTVL
The Kd is the equilibrium constant for the complex coming apart. What is called koff is the first-order rate constant of dissociation. For the molecule B1, the Kd in test [1] amounted to 0.17 nM. In addition, the koff in test [2] turned out to be 3.5e-05 s⁻¹.

B2: Fab C0021158 (Fab, V domains shown)
VH: EVQLLESGGGLVQPGGSLRLSCAASGFTFRYEVAAWVRQAPGKGLEWVSAISGPIPKGYYADSVKGRFTISRDNSKNTLYLQMNSLRAEDTAVYYCARLRADLGLYMDLWGRGTLVTVSS
VL: QSVLTQPPSVSAAPGQKVTISCSGSSSNIGNHYVSWYQQLPGTAPKLLIYDNSERTAGVPDRFSGSKSGTSATLGITGLQTGDEADYYCGTWDELTSNLVFGGGTKLTVL
On to B2, for which the Kd in test [1] turned out to be 0.17 nM. Moreover, in test [2], the off-rate (koff) worked out at 4.5e-05 s⁻¹.

B3: Fab C0021128 (Fab, V domains shown)
VH: EVQLLESGGGLVQPGGSLRLSCAASGFTFQYEVAAWVRQAPGKGLEWVSAISGPIPKGYYADSVKGRFTISRDNSKNTLYLQMNSLRAEDTAVYYCARLRADLGLYMDLWGRGTLVTVSS
VL: QSVLTQPPSVSAAPGQKVTISCSGSSSNIGNHYVSWYQQLPGTAPKLLIYDNAIESSGIPDRFSGSKSGTSATLGITGLQTGDGADYYCGTWDSNLSALVFGGGTKLTVL
Consider B3, for which the Kd in test [1] turned out to be 2.5 nM. Further, the koff in test [2] worked out at 0.00067 s⁻¹.

B4: Fab C0021133 (Fab, V domains shown)
VH: EVQLLESGGGLVQPGGSLRLSCAASGFTFRYDHHVWVRQAPGKGLEWVSAISGSGGSTYYADSVKGRFTISRDNSKNTLYLQMNSLRAEDTAVYYCARLRADLGLYMDLWGRGTLVTVSS
VL: QSVLTQPPSVSAAPGQKVTVSCSGSSSNIGNHYVSWYQQLPGTAPKLLIYDTTVLSSGIPDRFSGSKSGTSATLGITGLQTGDEADYYCGTWDELTSNLVFGGGTKLTVL
Consider B4, for which the Kd in test [1] came out at 2.1 nM. The off-rate (koff) in test [2] was 0.00045 s⁻¹.

B5: Fab C0021139 (Fab, V domains shown)
VH: EVQLLESGGGLVQPGGSLRLSCAASGFTFQYDYQVWVRQAPGKGLEWVSAISGSGGSTYYADSVKGRFTISRDNSKNTLYLQMNSLRAEDTAVYYCARLRADLGLYMDLWGRGTLVTVSS
VL: QSVLTQPPSVSAAPGQKVTISCSGSSSNIGNHYVSWYQQLPGTAPKLLIYDNSERTSGIPDRFSGSKSGTSATLGITGLQTGDEADYYCGTWDELTSNLVFGGGTKLTVL
For the molecule B5, in test [1], the equilibrium dissociation constant (Kd) is 4.4 nM. The koff in test [2] is 0.00087 s⁻¹.

B6: Fab C0021181 (Fab, V domains shown)
VH: EVQLLESGGGLVRPGGSLRLSCAASEFTFRYDYHVWVRQAPGKGLEWVSAISGSGGSTYYADSVKSRFTISRDNSKNTLYLQMNSLRAEDTAVYYCARLRADLGLYMDLWGRGTLVTVSS
VL: QSVLTQPPSVSAAPGQKVAVSCSGSSSNIGSHYVSWYQQLPGTAPKLLIYDNSERTSGIPDRFSGSKSGTSATLGITGLQTGDEADYYCGTWDELTSNLVFGGGTRLTVL
For the molecule B6, the dissociation constant (Kd) in test [1] stood at 0.29 nM. The koff in test [2] was determined as 4.2e-05 s⁻¹.
